From publication PMC2989460

Molecular target: anaphase-promoting complex/cyclosome (APC/C), human (human (endogenous in HeLa)) (UniProt Q9H1A4)
Assay: cryo-EM structure

Chain of UniProt Q9H1A4 (Q9H1A4 whole entry, looked up, one chain of several): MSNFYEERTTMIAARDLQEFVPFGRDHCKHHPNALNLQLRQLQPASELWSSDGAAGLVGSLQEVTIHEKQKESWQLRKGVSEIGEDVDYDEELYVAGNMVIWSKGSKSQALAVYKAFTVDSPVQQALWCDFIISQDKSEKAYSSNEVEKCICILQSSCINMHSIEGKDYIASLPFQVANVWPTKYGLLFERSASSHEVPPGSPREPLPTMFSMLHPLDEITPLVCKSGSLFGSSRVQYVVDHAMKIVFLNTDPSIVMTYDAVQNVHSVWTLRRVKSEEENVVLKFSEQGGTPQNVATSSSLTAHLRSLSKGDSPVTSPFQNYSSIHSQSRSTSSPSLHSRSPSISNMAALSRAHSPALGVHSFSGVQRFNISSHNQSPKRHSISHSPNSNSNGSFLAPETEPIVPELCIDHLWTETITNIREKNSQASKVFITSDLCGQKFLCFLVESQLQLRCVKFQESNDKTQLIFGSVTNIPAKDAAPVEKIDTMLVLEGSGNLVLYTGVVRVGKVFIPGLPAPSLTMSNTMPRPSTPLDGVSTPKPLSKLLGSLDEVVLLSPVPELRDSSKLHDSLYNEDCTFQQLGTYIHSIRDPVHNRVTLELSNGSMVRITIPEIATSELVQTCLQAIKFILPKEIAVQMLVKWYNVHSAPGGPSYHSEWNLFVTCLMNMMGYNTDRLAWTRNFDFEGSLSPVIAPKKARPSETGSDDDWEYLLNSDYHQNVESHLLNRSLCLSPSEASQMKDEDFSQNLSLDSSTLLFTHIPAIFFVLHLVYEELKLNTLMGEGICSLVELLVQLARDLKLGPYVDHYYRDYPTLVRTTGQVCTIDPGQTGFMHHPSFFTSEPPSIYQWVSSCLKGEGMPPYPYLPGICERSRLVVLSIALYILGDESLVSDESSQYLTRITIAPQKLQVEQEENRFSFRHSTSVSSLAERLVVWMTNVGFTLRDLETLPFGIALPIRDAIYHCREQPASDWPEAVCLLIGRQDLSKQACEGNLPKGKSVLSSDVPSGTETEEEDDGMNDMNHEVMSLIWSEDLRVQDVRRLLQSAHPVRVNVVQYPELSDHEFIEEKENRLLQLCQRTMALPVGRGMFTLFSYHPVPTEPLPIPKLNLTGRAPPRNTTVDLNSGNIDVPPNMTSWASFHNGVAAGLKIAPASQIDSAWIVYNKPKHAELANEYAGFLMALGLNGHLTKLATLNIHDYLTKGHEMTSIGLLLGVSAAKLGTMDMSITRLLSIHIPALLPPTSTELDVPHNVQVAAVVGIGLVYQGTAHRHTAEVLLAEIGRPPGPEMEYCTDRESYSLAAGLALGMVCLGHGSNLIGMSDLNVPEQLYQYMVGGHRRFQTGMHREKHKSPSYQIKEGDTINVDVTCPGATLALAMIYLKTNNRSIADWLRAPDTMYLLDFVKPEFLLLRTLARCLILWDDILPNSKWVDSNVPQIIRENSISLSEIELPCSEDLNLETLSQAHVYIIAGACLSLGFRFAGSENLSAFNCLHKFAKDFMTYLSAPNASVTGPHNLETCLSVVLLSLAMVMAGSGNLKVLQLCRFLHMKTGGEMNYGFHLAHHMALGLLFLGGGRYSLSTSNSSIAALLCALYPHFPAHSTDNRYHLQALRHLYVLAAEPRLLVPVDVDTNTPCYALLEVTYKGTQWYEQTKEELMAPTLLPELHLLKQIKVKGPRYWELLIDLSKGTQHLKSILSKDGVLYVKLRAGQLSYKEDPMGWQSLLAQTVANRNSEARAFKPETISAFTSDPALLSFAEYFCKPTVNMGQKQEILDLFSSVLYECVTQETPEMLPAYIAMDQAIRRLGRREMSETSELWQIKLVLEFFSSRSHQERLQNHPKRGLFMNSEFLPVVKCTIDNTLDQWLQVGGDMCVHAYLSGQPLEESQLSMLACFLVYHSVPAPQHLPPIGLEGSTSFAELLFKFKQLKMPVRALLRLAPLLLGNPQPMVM

With “recombinant Cdc20 (from UniProt Q12834 1-499) (natural protein)” as the substance, how does the percent of APC/C molecules with the additional Cdc20 mass read?
The percent of APC/C molecules with the additional Cdc20 mass was 30%.
